{
  "source": "patent US20180147231A1",
  "about": "“METHOD FOR TREATMENT AND PROGNOSIS OF COLORECTAL CANCER” (Oxford University Innovation Limited, priority 2015, published 2018)",
  "key": {"[1]": {"tested_on": "T84 cells (KRAS-mutant, IL22RA1 high)", "experiment": "Chemotherapy killing assay (MTT), T84 cells", "type": "cell-based, human", "settings": "48 h pre-treatment with 10 ng/mL IL-22, then 50 μM oxaliplatin or 5-FU for 48 h", "method": "(A) MTT assay on Colo205, T84, and SW480 cells pre-treated or not pre-treated for 48 h with 10 ng/mL IL-22, then treated with 50 μM oxaliplatin or 5-FU for 48 h. MTT was added 2 h prior to end of 48 h incubation. Formazan particles were dissolved in DMSO and absorbance was measured at 540 nm. Raw absorbances are blank corrected, normalized to a no treatment or IL-22 only, and represented as a % reduction in viability compared to the no treatment or IL-22 only conditions. n=3 independent experiments with 3 experimental replicates, *p<0.05, ****p<0.0001, one-way ANOVA with Tukey's post test for multiple comparisons.\nColo205, T84, SW480, and DLD-1 cells were seeded at a density of 1×10^4 cells/well in 48 well plates. Cells were pre-treated for 48 h with 10 ng/mL IL-22, then subjected to 50 μM oxaliplatin (Sigma) or 5-fluorouracil (Sigma) or vehicle control (DMSO) for 48 h. 50 μg Methylthiazolyldiphenyl-tetrazolium bromide (MTT) (Sigma) was added to each well 2 h prior to the end of incubation. At the end of the 48 h incubation supernatants were aspirated and formazan particles were solubilized with DMSO and transferred to a fresh plate. Absorbance was measured at 540 nm on Spectrostar Nano plate reader (BMG Labtech)."}, "[2]": {"tested_on": "T84 CRC cells (KRAS-mutant, IL22RA1 high)", "experiment": "Primary sphere forming assay, T84 cells", "type": "cell-based, human", "settings": "10 ng/mL IL-22 pre-treatment 48 h, spheres cultured 6 days", "method": "(A) Schematic representation of primary sphere forming assay workflow. Cells were pre-treated with 10 ng/mL IL-22 for 48 hours, filtered to single cells and 1000 cells/well were seeded into 96 well low-binding plates in serum-free media containing 1% methylcellulose, 20 ng/mL EGF, 20 ng/mL bFGF with and without 10 ng/mL IL-22. Four experimental replicates were seeded for each condition. Cultured spheres from (B) Colo205, T84 and SW480 cell lines for 6 days. (C) Bright field microscopy images (4×) of single wells 6 days after seeding (1 experiment representative of 4). (D) MTT assay to assess viability of spheres 6 days after seeding (n=3). (E) Bright field microscopy of T84 spheres (20×) 6 days after seeding. (F) Quantification of spheres after 6 days of culture using ImageJ. Data represent mean+/−SD of 3 independent experiments, each with 3 technical replicates per condition. *p<0.05, one-way ANOVA with Dunnett's post test for multiple comparisons.\nColo205, T84, and SW480 cells were pretreated for 48 h in 48 well plates with 10 ng/mL IL-22 (R&D Systems). Cells were filtered to single cells using […] filter and 1000 cells/well were seeded into 96 well low binding plates (Corning) in 1% methylcellulose in IMDM (R&D Systems), 20 ng/mL recombinant EGF (Sigma), 20 ng/mL recombinant basic FGF (Peprotech), lx insulin-transferrin selenite (ITS) (Sigma) in serum-free DMEM. […]"}, "[3]": {"tested_on": "DLD-1 KRAS WT cells (mutant KRAS allele knocked out)", "experiment": "Phosflow analysis of intracellular signaling, DLD-1 KRAS WT", "type": "cell-based", "settings": "30 min 10 ng/mL recombinant human IL-22", "method": "Therefore this isogenic pair differs only in KRAS mutation status and allows a clean system for comparison of KRAS-dependent IL-22 effects without inter-cell line mutational heterogeneity. (A) Representative FACS plots of IL-22RA1 expression and quantification of mean fluorescence intensity (WI) showing similar IL-22RA1 expression in the isogenic pair (4 experimental replicates). […] MTT was added 2 h prior to end of 48 h incubation. Formazan particles were dissolved in DMSO and absorbance was measured at 540 nm. Raw absorbances are blank corrected, normalized to a no treatment, and represented as a % viability compared to the no treatment condition. n=5 independent experiments with 3 experimental replicates. p values computed by non-parametric Mann-Whitney test comparing 5 FU alone to IL-22 pretreatment with 5 FU for each DLD-1 line.\nAdherent Colo205, T84, SW480, and DLD-1 cells were dissociated using StemPro® Accutase® (Life Technologies), filtered through […] filters, and counted by Trypan Blue exclusion. 5×10^5 cells of each line were stained with 5 μL Human IL-22 R alpha 1 Phycoerythrin MAb (Clone 305405) (R&D Systems) or […] isotype rat anti-mouse IgG1 PE (BD Biosciences) and incubated for 30 minutes at room temperature. Cells were washed with PBS, 0.1% BSA, 2 mM EDTA and acquired on the BD LSRII. Analysis was performed using FlowJo (Tree Star) software. […]"}},
  "data": [
    {"molecule": "IL-22: recombinant human IL-22 (R&D Systems), IL-10 superfamily cytokine; human sequence SEQ ID NO: 5 (protein, listed as Homo sapiens) MAALQKSVSSFLMGTLATSCLLLLALLVQGGAAAPISSHCRLDKSNFQQPYITNRTFMLAKEASLADNNTDVRLIGEKLFHGVSMSERCYLMKQVLNFTLEEVLFPQSDRFQPYMQEVVPFLARLSNRLSTCHIEGDDLHIQRNVQKLKDTVKKLGESGEIKAIGELDLLFMSLRNACI", "values": [
      {"measurement": "Protection against oxaliplatin and 5-fluorouracil mediated cell death", "setting": "[1]", "result": "protects against oxaliplatin and 5 fluorouracil mediated cell death"},
      {"measurement": "Clonogenic outgrowth (sphere formation)", "setting": "[2]", "result": "enhances clonogenic outgrowth"},
      {"measurement": "Phosphorylated ERK1/2", "setting": "[3]", "result": "not IL-22 inducible"},
      {"measurement": "Phosphorylated STAT3", "setting": "[3]", "result": "identical extent of phosphorylated STAT3"}
    ]}
  ]
}
